The source of these data is PMC4157841, “Ethylmalonic Encephalopathy ETHE1 R163W/R163Q Mutations Alter Protein Stability and Redox Properties of the Iron Centre” (PLoS ONE, 2014).

The data set concerns the molecule itself. Kind of data set: SEC; Superdex 75 in 50 mM Tris-HCl pH 7.5, 150 mM NaCl, column calibrated with standard proteins; native molecular mass determined; data not shown. Background: SEC sorts molecules by how far they enter the pores of the column.

B1: Human ETHE1 wild type (enzyme, UniProt O95571 8-254, looked up)
chain: VARRQLSQRGGSGAPILLRQMFEPVSCTFTYLLGDRESREAVLIDPVLETAPRDAQLIKELGLRLLYAVNTHCHADHITGSGLLRSLLPGCQSVISRLSGAQADLHIEDGDSIRFGRFALETRASPGHTPGCVTFVLNDHSMAFTGDALLIRGCGRTDFQQGCAKTLYHSVHEKIFTLPGDCLIYPAHDYHGFTVSTVEEERTLNPRLTLSCEEFVKIMGNLNLPKPQQIDFAVPANMRCGVQTPTA
notes: Holds about 1 mol iron per mol protein; also called ETHE1-WT; wild-type ETHE1; source: E. coli Bl21 DE3, purified (His-trap HP, Superdex 75 size exclusion)
Regarding B1, the stoichiometry N (commonly the number of molecules, sites or subunits per partner or assembly) stood at 2.

B2: Human ETHE1-p.Arg163Gln (enzyme, UniProt O95571 8-254, looked up)
chain: VARRQLSQRGGSGAPILLRQMFEPVSCTFTYLLGDRESREAVLIDPVLETAPRDAQLIKELGLRLLYAVNTHCHADHITGSGLLRSLLPGCQSVISRLSGAQADLHIEDGDSIRFGRFALETRASPGHTPGCVTFVLNDHSMAFTGDALLIRGCGQTDFQQGCAKTLYHSVHEKIFTLPGDCLIYPAHDYHGFTVSTVEEERTLNPRLTLSCEEFVKIMGNLNLPKPQQIDFAVPANMRCGVQTPTA
notes: also called ETHE1 R163Q; source: E. coli Bl21 DE3, purified (His-trap HP, Superdex 75 size exclusion)
Turning to B2, the “stoichiometry N” value is 2.

B3: Human ETHE1-p.Arg163Trp (enzyme, UniProt O95571 8-254, looked up)
chain: VARRQLSQRGGSGAPILLRQMFEPVSCTFTYLLGDRESREAVLIDPVLETAPRDAQLIKELGLRLLYAVNTHCHADHITGSGLLRSLLPGCQSVISRLSGAQADLHIEDGDSIRFGRFALETRASPGHTPGCVTFVLNDHSMAFTGDALLIRGCGWTDFQQGCAKTLYHSVHEKIFTLPGDCLIYPAHDYHGFTVSTVEEERTLNPRLTLSCEEFVKIMGNLNLPKPQQIDFAVPANMRCGVQTPTA
notes: also called ETHE1 R163W; source: E. coli Bl21 DE3, purified (His-trap HP, Superdex 75 size exclusion)
On to B3, for which the “stoichiometry N” value stood at 2.
